EP4659810A1

Key:
[1] = target: VP1 pentamer of BKV genotype I (truncated VP1, residues 31 to 301, C104S) (BK virus genotype I (Dunlop sequence)) (UniProt P03088); assay: BLI (OctetRED96e), biotinylated VP1 pentamer on streptavidin sensor, mAb 0 to 40 nM in solution
[2] = target: VP1 on entire replicative virions of BKV genotype II (patient's isolate) (BK virus genotype II); assay: cell-based or functional assay
[3] = target: VP1 on BKV genotype II pseudovirions (GBR-12; AB263920) (BK virus genotype II (GBR-12; AB263920)) (UniProt P14996); assay: cell-based or functional assay
[4] = target: VP1 on entire replicative virions of BK virus genotype Ia (Dunlop strain; ATCC VR-837) (BK virus genotype Ia (Dunlop strain)) (UniProt P03088); assay: cell-based or functional assay
[5] = target: VP1 on BKV genotype Ia pseudovirions (BK-D; JF894228) (BK virus genotype Ia (BK-D; JF894228)) (UniProt P03088); assay: cell-based or functional assay

MTX005 from Memo Therapeutics AG (referred as 319C07 in WO2021/250097) (antibody), sequence (VH): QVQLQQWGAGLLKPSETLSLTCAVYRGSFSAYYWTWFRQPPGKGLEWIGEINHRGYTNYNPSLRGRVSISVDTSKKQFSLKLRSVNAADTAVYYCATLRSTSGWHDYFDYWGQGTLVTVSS
MTX005 from Memo Therapeutics AG (referred as 319C07 in WO2021/250097) (antibody), sequence (VL): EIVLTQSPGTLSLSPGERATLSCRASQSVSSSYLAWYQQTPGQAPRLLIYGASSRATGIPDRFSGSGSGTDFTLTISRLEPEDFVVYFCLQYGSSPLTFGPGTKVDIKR

With “MTX005 from Memo Therapeutics AG (referred as 319C07 in WO2021/250097) (antibody)” the Kd [1] was 17.9 nM, the IC50, neutralization of fully replicative BKV virions (MRC5 cells) [2] was 0.03 ng/mL and the IC50, neutralization of BKV pseudovirions (luciferase, 293TT cells) [3] was 0.08 ng/mL. The IC50, neutralization of fully replicative BKV virions (MRC5 cells) [4] was 0.05 ng/mL and the IC50, neutralization of BKV pseudovirions (luciferase, 293TT cells) [5] was 0.03 ng/mL.
